These results are taken from patent US20220010021A1 (Sanofi, published 2022).

In one test the target is T1, human beta-Klotho (KLB) (human, UniProt Q86Z14 53-997).
T1 construct: bought protein, used as analyte in the off-rate screening; also called human KLB; β-Klotho
T1 sequence (looked up): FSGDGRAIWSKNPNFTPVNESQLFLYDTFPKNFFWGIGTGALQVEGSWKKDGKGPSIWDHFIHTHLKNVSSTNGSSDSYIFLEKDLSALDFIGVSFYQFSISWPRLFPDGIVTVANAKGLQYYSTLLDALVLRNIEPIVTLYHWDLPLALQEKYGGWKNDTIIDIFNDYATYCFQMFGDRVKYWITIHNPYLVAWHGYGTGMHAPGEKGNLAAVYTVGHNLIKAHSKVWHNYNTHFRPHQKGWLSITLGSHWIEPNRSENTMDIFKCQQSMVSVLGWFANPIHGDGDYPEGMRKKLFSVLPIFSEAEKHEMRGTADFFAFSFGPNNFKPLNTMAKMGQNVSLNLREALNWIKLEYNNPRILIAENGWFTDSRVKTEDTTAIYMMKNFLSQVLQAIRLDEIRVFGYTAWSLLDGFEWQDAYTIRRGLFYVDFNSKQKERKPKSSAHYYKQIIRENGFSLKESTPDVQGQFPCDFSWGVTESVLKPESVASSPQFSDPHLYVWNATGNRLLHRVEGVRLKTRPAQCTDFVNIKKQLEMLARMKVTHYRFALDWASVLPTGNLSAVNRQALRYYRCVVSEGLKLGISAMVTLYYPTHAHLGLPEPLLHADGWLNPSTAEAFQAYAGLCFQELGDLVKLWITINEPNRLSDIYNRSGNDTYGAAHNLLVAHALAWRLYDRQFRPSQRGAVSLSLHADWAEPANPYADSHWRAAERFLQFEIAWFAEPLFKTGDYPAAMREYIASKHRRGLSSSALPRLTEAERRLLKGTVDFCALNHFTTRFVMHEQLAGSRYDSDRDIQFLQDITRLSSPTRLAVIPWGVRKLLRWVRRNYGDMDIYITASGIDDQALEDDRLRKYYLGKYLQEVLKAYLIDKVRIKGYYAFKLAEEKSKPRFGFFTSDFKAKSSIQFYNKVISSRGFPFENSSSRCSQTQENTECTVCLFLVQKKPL
Put plainly: BLI off-rate screening, mAb captured, KLB analyte.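 Also: Off-rate taken from the dissociation phase, biosensors held in D-PBS with 0.1% BSA over 1800 s, antibody supernatants diluted to 25 µg/mL.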

Test [1] has as its target human FGFR1c/KLB receptor complex on iLite FGF21 Assay Ready Cells (human, UniProt P11362 22-822; Q86Z14 1-1044). Put plainly: cell-based or functional assay. As to Mean E max (%): reference of the scale not given here.

For orientation: koff means the first-order rate constant of dissociation. Low readings indicate a long-lived complex, high ones a short-lived complex.

Numbering of substitutions follows the chain as printed. Names may count otherwise.

human FGFR1c/KLB receptor complex on iLite FGF21 Assay Ready Cells, sequence (P11362 22-822, chain 1 of 2): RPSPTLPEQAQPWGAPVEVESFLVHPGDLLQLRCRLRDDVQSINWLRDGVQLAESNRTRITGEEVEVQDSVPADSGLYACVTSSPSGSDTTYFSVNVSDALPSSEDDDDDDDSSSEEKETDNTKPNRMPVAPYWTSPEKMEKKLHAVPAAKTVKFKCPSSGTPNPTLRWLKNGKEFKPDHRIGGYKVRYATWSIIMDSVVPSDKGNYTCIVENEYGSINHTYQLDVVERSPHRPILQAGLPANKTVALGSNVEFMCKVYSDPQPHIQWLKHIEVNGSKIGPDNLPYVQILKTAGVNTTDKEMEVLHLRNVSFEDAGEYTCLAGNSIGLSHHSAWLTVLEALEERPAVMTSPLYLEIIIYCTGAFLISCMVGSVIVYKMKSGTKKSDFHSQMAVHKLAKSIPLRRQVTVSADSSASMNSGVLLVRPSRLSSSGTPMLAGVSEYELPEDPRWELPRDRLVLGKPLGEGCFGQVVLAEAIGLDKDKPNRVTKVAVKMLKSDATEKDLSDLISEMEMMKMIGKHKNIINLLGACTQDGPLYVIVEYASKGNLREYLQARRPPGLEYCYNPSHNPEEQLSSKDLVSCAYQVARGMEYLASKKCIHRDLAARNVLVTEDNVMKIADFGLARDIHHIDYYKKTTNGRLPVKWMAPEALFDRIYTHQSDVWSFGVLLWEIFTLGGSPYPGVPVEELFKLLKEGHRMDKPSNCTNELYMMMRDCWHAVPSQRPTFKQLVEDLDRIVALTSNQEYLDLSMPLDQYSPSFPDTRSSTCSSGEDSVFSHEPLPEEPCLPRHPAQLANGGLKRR
human FGFR1c/KLB receptor complex on iLite FGF21 Assay Ready Cells, sequence (Q86Z14 whole entry, chain 2 of 2): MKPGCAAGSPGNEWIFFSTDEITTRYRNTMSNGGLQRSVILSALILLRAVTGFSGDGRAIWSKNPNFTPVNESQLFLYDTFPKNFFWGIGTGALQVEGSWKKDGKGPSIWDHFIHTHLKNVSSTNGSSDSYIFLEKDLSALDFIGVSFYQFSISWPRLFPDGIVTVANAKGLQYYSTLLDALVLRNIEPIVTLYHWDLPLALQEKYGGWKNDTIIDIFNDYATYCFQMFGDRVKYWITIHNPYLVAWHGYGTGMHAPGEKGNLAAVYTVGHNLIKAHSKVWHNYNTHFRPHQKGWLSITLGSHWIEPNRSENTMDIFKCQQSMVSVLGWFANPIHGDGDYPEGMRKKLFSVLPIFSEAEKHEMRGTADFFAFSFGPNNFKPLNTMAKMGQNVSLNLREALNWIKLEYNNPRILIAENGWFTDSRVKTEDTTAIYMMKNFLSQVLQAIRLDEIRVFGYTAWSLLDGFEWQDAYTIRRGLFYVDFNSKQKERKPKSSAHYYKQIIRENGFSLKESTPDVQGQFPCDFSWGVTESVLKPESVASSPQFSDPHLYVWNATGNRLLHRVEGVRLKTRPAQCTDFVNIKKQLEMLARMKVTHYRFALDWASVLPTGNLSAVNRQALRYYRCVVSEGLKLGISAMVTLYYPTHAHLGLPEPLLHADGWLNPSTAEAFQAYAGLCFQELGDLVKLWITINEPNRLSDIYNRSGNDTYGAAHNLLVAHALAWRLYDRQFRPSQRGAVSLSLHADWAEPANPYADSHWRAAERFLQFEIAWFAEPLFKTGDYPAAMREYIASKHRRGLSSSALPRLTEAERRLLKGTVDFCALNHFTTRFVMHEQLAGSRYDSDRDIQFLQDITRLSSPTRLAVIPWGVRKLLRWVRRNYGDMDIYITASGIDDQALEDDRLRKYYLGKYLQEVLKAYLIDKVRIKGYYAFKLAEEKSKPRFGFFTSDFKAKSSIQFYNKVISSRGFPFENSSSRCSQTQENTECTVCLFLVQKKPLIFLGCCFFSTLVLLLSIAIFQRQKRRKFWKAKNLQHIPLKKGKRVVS

B1: 16H7 variant with light chain substitution D52K (antibody, V domains shown)
VH: not shown
VL: SYVLTQPPSVSVAPGQTARITCGGNNIGSESVHWYQQKPGQAPVLVVYDDSKRPSGIPERFSGSNSGNTATLTISRVEAGDEADYYCQVWDGNSDHVVFGGGTKLTVLG
As to B1, in the test with human beta-Klotho (KLB), the koff was 9.2e-05 s⁻¹. Moreover, in test [1], the “Mean E max (%)” value was determined as 101% and the “Mean EC50” value is 0.117 nM.

B2: 16H7 variant with light chain substitution P54F (antibody, V domains shown)
VH: not shown
VL: B1 VL with K52D, P54F
Molecule B2 displayed a koff in the test with human beta-Klotho (KLB) of 0.00012 s⁻¹. Further, in test [1], the “Mean E max (%)” value came out at 105% and the “Mean EC50” value was 0.143 nM.

B3: 16H7 variant with light chain substitution P54C (antibody, V domains shown)
VH: not shown
VL: B1 VL with K52D, P54C
Take B3: the koff with human beta-Klotho (KLB) is 0.00012 s⁻¹. Besides, in test [1], the “Mean E max (%)” value is 100% and the “Mean EC50” value amounted to 0.116 nM.

B4: 16H7 variant with light chain substitution D52Y (antibody, V domains shown)
VH: not shown
VL: B1 VL with K52Y
B4 gave a koff with human beta-Klotho (KLB) of 9.1e-05 s⁻¹. For the same molecule, in test [1], the “Mean E max (%)” value worked out at 102% and the “Mean EC50” value was found to be 0.11 nM.

B5: 16H7 variant with light chain substitution D52V (antibody, V domains shown)
VH: not shown
VL: B1 VL with K52V
On to B5, for which, in the test with human beta-Klotho (KLB), the koff came out at 6.9e-05 s⁻¹. Further, in test [1], the “Mean E max (%)” value stood at 114% and the “Mean EC50” value was found to be 0.125 nM.

B6: 16H7 variant with light chain substitution D52R (antibody, V domains shown)
VH: not shown
VL: B1 VL with K52R
The molecule B6 showed a koff with human beta-Klotho (KLB) of 2.9e-05 s⁻¹. Besides, in test [1], the “Mean E max (%)” value stood at 96% and the “Mean EC50” value came out at 0.091 nM.

B7: 16H7 variant with light chain substitution D52N (antibody, V domains shown)
VH: not shown
VL: B1 VL with K52N
Molecule B7 came in with a koff with human beta-Klotho (KLB) of 6.9e-07 s⁻¹. Also, in test [1], the “Mean E max (%)” value came to 115% and the “Mean EC50” value came out at 0.124 nM.

B8: 16H7 variant with light chain substitution P54G (antibody, V domains shown)
VH: not shown
VL: B1 VL with K52D, P54G
In the test with human beta-Klotho (KLB), B8 had a koff of 5.1e-05 s⁻¹. Further, in test [1], the “Mean E max (%)” value is 114% and the “Mean EC50” value came out at 0.141 nM.

B9: 16H7 variant with light chain substitution D52T (antibody, V domains shown)
VH: not shown
VL: B1 VL with K52T
As for B9, in the test with human beta-Klotho (KLB), the koff came out at 1.8e-05 s⁻¹. In addition, in test [1], the “Mean E max (%)” value came to 100% and the “Mean EC50” value stood at 0.109 nM.

B10: 16H7 variant with light chain substitution D52M (antibody, V domains shown)
VH: not shown
VL: B1 VL with K52M
The molecule B10 showed a koff with human beta-Klotho (KLB) of 2.4e-05 s⁻¹. In test [1], the “Mean E max (%)” value worked out at 105% and the “Mean EC50” value was found to be 0.144 nM.

B11: 16H7 variant with light chain substitution D52S (antibody, V domains shown)
VH: not shown
VL: B1 VL with K52S
With B11, in the test with human beta-Klotho (KLB), the koff was determined as 4e-05 s⁻¹. Besides, in test [1], the “Mean E max (%)” value came out at 108% and the “Mean EC50” value is 0.098 nM.

B12: 16H7 variant with light chain substitution P54H (antibody, V domains shown)
VH: not shown
VL: B1 VL with K52D, P54H
Molecule B12 had a koff in the test with human beta-Klotho (KLB) of 0.00014 s⁻¹. In test [1], the “Mean E max (%)” value was 100% and the “Mean EC50” value came out at 0.111 nM.

B13: 16H7 variant with light chain substitution D52L (antibody, V domains shown)
VH: not shown
VL: B1 VL with K52L
In the test with human beta-Klotho (KLB), B13 had an off-rate constant (koff) of 5.7e-05 s⁻¹. In test [1], the “Mean E max (%)” value amounted to 106% and the “Mean EC50” value came to 0.107 nM.

B14: 16H7 variant with light chain substitution P54D (antibody, V domains shown)
VH: not shown
VL: B1 VL with K52D, P54D
Consider B14, for which the koff with human beta-Klotho (KLB) stood at 0.00028 s⁻¹. In addition, in test [1], the “Mean E max (%)” value is 96% and the “Mean EC50” value worked out at 0.115 nM.

B15: 16H7 variant with light chain substitution D52Q (antibody, V domains shown)
VH: not shown
VL: B1 VL with K52Q
Turning to B15, the koff with human beta-Klotho (KLB) was found to be 2.7e-05 s⁻¹. Also, in test [1], the “Mean E max (%)” value was determined as 101% and the “Mean EC50” value was 0.107 nM.
